Patent EP4772193A1 (Teijin Pharma Limited, dated 2026)
Read-outs that look alike come from different tables or passages of the source. Blank lines part the entries; values can stand above or below the binder they belong to.

Key:
[1] = biological target: T1, recombinant human soluble gpNMB (recombinant human gpNMB-FLAG-His) (human, UniProt Q14956 23-498); assay: antigen ELISA
T1 sequence: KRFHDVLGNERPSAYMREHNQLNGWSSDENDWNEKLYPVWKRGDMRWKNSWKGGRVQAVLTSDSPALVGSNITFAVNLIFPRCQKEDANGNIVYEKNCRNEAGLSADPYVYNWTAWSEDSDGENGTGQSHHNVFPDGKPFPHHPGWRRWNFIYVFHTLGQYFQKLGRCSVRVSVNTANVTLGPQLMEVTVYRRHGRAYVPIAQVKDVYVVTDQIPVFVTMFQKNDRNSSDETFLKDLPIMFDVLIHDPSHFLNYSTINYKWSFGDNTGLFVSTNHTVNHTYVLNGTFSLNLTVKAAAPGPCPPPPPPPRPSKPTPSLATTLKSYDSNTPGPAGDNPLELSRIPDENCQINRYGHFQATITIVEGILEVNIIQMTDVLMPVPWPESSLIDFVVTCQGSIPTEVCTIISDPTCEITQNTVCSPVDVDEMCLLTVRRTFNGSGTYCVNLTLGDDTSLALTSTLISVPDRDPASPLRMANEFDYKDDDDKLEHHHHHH

[2] = biological target: T1, recombinant human soluble gpNMB …; assay: antigen ELISA, vs hGPN18-2_H2L3
[3] = biological target: T1, recombinant human soluble gpNMB …; assay: antigen ELISA; remark: listed apart in the source
[4] = biological target: T1, recombinant human soluble gpNMB …; assay: antigen ELISA, vs hGPN18-2_H2L3; remark: listed apart in the source

B1: hGPN18-2_H2L3 VH D111A (antibody, V domains shown)
VH: QVQLVQSGPGLVQPTQTLTLTCSFSGFSLSTSVMGVGWIRQPSGKGLEWLADIWWDDDKDYNPSLKSRLTISKDTSKNQVVLTMTNMDTVDTATYYCARTYYSNYEYYGMAYWGQGTLVTVSS
VL: DIVMTQSPDSLAVSLGERATINCRSSQTIILSNGNTYLEWYQQKPGQPPKLLIYKVSNRFSGVPDRFSGSGSGTDFTLTISSLQAEDVAVYYCFQGSHVPFTFGSGTKLEIKR
EC50 [1]: 11.3 nM
Relative binding activity [2]: 0.62

B2: hGPN18-2_H2L3 VH E106A (antibody, V domains shown)
VH: QVQLVQSGPGLVQPTQTLTLTCSFSGFSLSTSVMGVGWIRQPSGKGLEWLADIWWDDDKDYNPSLKSRLTISKDTSKNQVVLTMTNMDTVDTATYYCARTYYSNYAYYGMDYWGQGTLVTVSS
VL: DIVMTQSPDSLAVSLGERATINCRSSQTIILSNGNTYLEWYQQKPGQPPKLLIYKVSNRFSGVPDRFSGSGSGTDFTLTISSLQAEDVAVYYCFQGSHVPFTFGSGTKLEIKR
EC50 [1]: 10.8 nM
Relative binding activity [2]: 0.64

B3: hGPN18-2_H2L3 VH G109A (antibody, V domains shown)
VH: QVQLVQSGPGLVQPTQTLTLTCSFSGFSLSTSVMGVGWIRQPSGKGLEWLADIWWDDDKDYNPSLKSRLTISKDTSKNQVVLTMTNMDTVDTATYYCARTYYSNYEYYAMDYWGQGTLVTVSS
VL: DIVMTQSPDSLAVSLGERATINCRSSQTIILSNGNTYLEWYQQKPGQPPKLLIYKVSNRFSGVPDRFSGSGSGTDFTLTISSLQAEDVAVYYCFQGSHVPFTFGSGTKLEIKR
EC50 [1]: 10.5 nM
Relative binding activity [2]: 0.61

B4: hGPN18-2_H2L3 VH K66A (antibody, V domains shown)
VH: QVQLVQSGPGLVQPTQTLTLTCSFSGFSLSTSVMGVGWIRQPSGKGLEWLADIWWDDDKDYNPSLASRLTISKDTSKNQVVLTMTNMDTVDTATYYCARTYYSNYEYYGMDYWGQGTLVTVSS
VL: DIVMTQSPDSLAVSLGERATINCRSSQTIILSNGNTYLEWYQQKPGQPPKLLIYKVSNRFSGVPDRFSGSGSGTDFTLTISSLQAEDVAVYYCFQGSHVPFTFGSGTKLEIKR
EC50 [1]: 4.96 nM
Relative binding activity [2]: 0.96

B5: hGPN18-2_H2L3 VH L65A (antibody, V domains shown)
VH: QVQLVQSGPGLVQPTQTLTLTCSFSGFSLSTSVMGVGWIRQPSGKGLEWLADIWWDDDKDYNPSAKSRLTISKDTSKNQVVLTMTNMDTVDTATYYCARTYYSNYEYYGMDYWGQGTLVTVSS
VL: DIVMTQSPDSLAVSLGERATINCRSSQTIILSNGNTYLEWYQQKPGQPPKLLIYKVSNRFSGVPDRFSGSGSGTDFTLTISSLQAEDVAVYYCFQGSHVPFTFGSGTKLEIKR
EC50 [1]: 5.04 nM
Relative binding activity [2]: 0.94

B6: hGPN18-2_H2L3 VH M110A (antibody, V domains shown)
VH: QVQLVQSGPGLVQPTQTLTLTCSFSGFSLSTSVMGVGWIRQPSGKGLEWLADIWWDDDKDYNPSLKSRLTISKDTSKNQVVLTMTNMDTVDTATYYCARTYYSNYEYYGADYWGQGTLVTVSS
VL: DIVMTQSPDSLAVSLGERATINCRSSQTIILSNGNTYLEWYQQKPGQPPKLLIYKVSNRFSGVPDRFSGSGSGTDFTLTISSLQAEDVAVYYCFQGSHVPFTFGSGTKLEIKR
EC50 [1]: 23.4 nM
Relative binding activity [2]: 0.41

B7: hGPN18-2_H2L3 VH N62A (antibody, V domains shown)
VH: QVQLVQSGPGLVQPTQTLTLTCSFSGFSLSTSVMGVGWIRQPSGKGLEWLADIWWDDDKDYAPSLKSRLTISKDTSKNQVVLTMTNMDTVDTATYYCARTYYSNYEYYGMDYWGQGTLVTVSS
VL: DIVMTQSPDSLAVSLGERATINCRSSQTIILSNGNTYLEWYQQKPGQPPKLLIYKVSNRFSGVPDRFSGSGSGTDFTLTISSLQAEDVAVYYCFQGSHVPFTFGSGTKLEIKR
EC50 [1]: 4.58 nM
Relative binding activity [2]: 0.97

B8: hGPN18-2_H2L3 VH N104A (antibody, V domains shown)
VH: QVQLVQSGPGLVQPTQTLTLTCSFSGFSLSTSVMGVGWIRQPSGKGLEWLADIWWDDDKDYNPSLKSRLTISKDTSKNQVVLTMTNMDTVDTATYYCARTYYSAYEYYGMDYWGQGTLVTVSS
VL: DIVMTQSPDSLAVSLGERATINCRSSQTIILSNGNTYLEWYQQKPGQPPKLLIYKVSNRFSGVPDRFSGSGSGTDFTLTISSLQAEDVAVYYCFQGSHVPFTFGSGTKLEIKR
EC50 [1]: 5.62 nM
Relative binding activity [2]: 0.8

The next lines start with the values.

EC50 [1]: 12 nM
Relative binding activity [2]: 0.43
B9: hGPN18-2_H2L3 VH P63A (antibody, V domains shown)
VH: QVQLVQSGPGLVQPTQTLTLTCSFSGFSLSTSVMGVGWIRQPSGKGLEWLADIWWDDDKDYNASLKSRLTISKDTSKNQVVLTMTNMDTVDTATYYCARTYYSNYEYYGMDYWGQGTLVTVSS
VL: DIVMTQSPDSLAVSLGERATINCRSSQTIILSNGNTYLEWYQQKPGQPPKLLIYKVSNRFSGVPDRFSGSGSGTDFTLTISSLQAEDVAVYYCFQGSHVPFTFGSGTKLEIKR

EC50 [1]: 10.6 nM
Relative binding activity [2]: 0.37
B10: hGPN18-2_H2L3 VH R99A (antibody, V domains shown)
VH: QVQLVQSGPGLVQPTQTLTLTCSFSGFSLSTSVMGVGWIRQPSGKGLEWLADIWWDDDKDYNPSLKSRLTISKDTSKNQVVLTMTNMDTVDTATYYCAATYYSNYEYYGMDYWGQGTLVTVSS
VL: DIVMTQSPDSLAVSLGERATINCRSSQTIILSNGNTYLEWYQQKPGQPPKLLIYKVSNRFSGVPDRFSGSGSGTDFTLTISSLQAEDVAVYYCFQGSHVPFTFGSGTKLEIKR

EC50 [1]: 3.59 nM
Relative binding activity [2]: 1.09
B11: hGPN18-2_H2L3 VH S64A (antibody, V domains shown)
VH: QVQLVQSGPGLVQPTQTLTLTCSFSGFSLSTSVMGVGWIRQPSGKGLEWLADIWWDDDKDYNPALKSRLTISKDTSKNQVVLTMTNMDTVDTATYYCARTYYSNYEYYGMDYWGQGTLVTVSS
VL: DIVMTQSPDSLAVSLGERATINCRSSQTIILSNGNTYLEWYQQKPGQPPKLLIYKVSNRFSGVPDRFSGSGSGTDFTLTISSLQAEDVAVYYCFQGSHVPFTFGSGTKLEIKR

EC50 [1]: 4.25 nM
Relative binding activity [2]: 1.01
B12: hGPN18-2_H2L3 VH S67A (antibody, V domains shown)
VH: QVQLVQSGPGLVQPTQTLTLTCSFSGFSLSTSVMGVGWIRQPSGKGLEWLADIWWDDDKDYNPSLKARLTISKDTSKNQVVLTMTNMDTVDTATYYCARTYYSNYEYYGMDYWGQGTLVTVSS
VL: DIVMTQSPDSLAVSLGERATINCRSSQTIILSNGNTYLEWYQQKPGQPPKLLIYKVSNRFSGVPDRFSGSGSGTDFTLTISSLQAEDVAVYYCFQGSHVPFTFGSGTKLEIKR

EC50 [1]: 4.04 nM
Relative binding activity [2]: 0.94
B13: hGPN18-2_H2L3 VH S103A (antibody, V domains shown)
VH: QVQLVQSGPGLVQPTQTLTLTCSFSGFSLSTSVMGVGWIRQPSGKGLEWLADIWWDDDKDYNPSLKSRLTISKDTSKNQVVLTMTNMDTVDTATYYCARTYYANYEYYGMDYWGQGTLVTVSS
VL: DIVMTQSPDSLAVSLGERATINCRSSQTIILSNGNTYLEWYQQKPGQPPKLLIYKVSNRFSGVPDRFSGSGSGTDFTLTISSLQAEDVAVYYCFQGSHVPFTFGSGTKLEIKR

EC50 [1]: 8.44 nM
Relative binding activity [2]: 0.47
B14: hGPN18-2_H2L3 VH T100A (antibody, V domains shown)
VH: QVQLVQSGPGLVQPTQTLTLTCSFSGFSLSTSVMGVGWIRQPSGKGLEWLADIWWDDDKDYNPSLKSRLTISKDTSKNQVVLTMTNMDTVDTATYYCARAYYSNYEYYGMDYWGQGTLVTVSS
VL: DIVMTQSPDSLAVSLGERATINCRSSQTIILSNGNTYLEWYQQKPGQPPKLLIYKVSNRFSGVPDRFSGSGSGTDFTLTISSLQAEDVAVYYCFQGSHVPFTFGSGTKLEIKR

EC50 [3]: 3.43 nM
Relative binding activity [4]: 0.92
B15: hGPN18-2_H2L3 VH V36A (antibody, V domains shown)
VH: QVQLVQSGPGLVQPTQTLTLTCSFSGFSLSTSVMGAGWIRQPSGKGLEWLADIWWDDDKDYNPSLKSRLTISKDTSKNQVVLTMTNMDTVDTATYYCARTYYSNYEYYGMDYWGQGTLVTVSS
VL: DIVMTQSPDSLAVSLGERATINCRSSQTIILSNGNTYLEWYQQKPGQPPKLLIYKVSNRFSGVPDRFSGSGSGTDFTLTISSLQAEDVAVYYCFQGSHVPFTFGSGTKLEIKR

EC50 [3]: 38 nM
Relative binding activity [4]: 0.2
B16: hGPN18-2_H2L3 VH W54A (antibody, V domains shown)
VH: QVQLVQSGPGLVQPTQTLTLTCSFSGFSLSTSVMGVGWIRQPSGKGLEWLADIAWDDDKDYNPSLKSRLTISKDTSKNQVVLTMTNMDTVDTATYYCARTYYSNYEYYGMDYWGQGTLVTVSS
VL: DIVMTQSPDSLAVSLGERATINCRSSQTIILSNGNTYLEWYQQKPGQPPKLLIYKVSNRFSGVPDRFSGSGSGTDFTLTISSLQAEDVAVYYCFQGSHVPFTFGSGTKLEIKR

EC50 [3]: 8.36 nM
Relative binding activity [4]: 0.66
B17: hGPN18-2_H2L3 VH W55A (antibody, V domains shown)
VH: QVQLVQSGPGLVQPTQTLTLTCSFSGFSLSTSVMGVGWIRQPSGKGLEWLADIWADDDKDYNPSLKSRLTISKDTSKNQVVLTMTNMDTVDTATYYCARTYYSNYEYYGMDYWGQGTLVTVSS
VL: DIVMTQSPDSLAVSLGERATINCRSSQTIILSNGNTYLEWYQQKPGQPPKLLIYKVSNRFSGVPDRFSGSGSGTDFTLTISSLQAEDVAVYYCFQGSHVPFTFGSGTKLEIKR

EC50 [1]: 7.55 nM
Relative binding activity [2]: 0.7
B18: hGPN18-2_H2L3 VH Y61A (antibody, V domains shown)
VH: QVQLVQSGPGLVQPTQTLTLTCSFSGFSLSTSVMGVGWIRQPSGKGLEWLADIWWDDDKDANPSLKSRLTISKDTSKNQVVLTMTNMDTVDTATYYCARTYYSNYEYYGMDYWGQGTLVTVSS
VL: DIVMTQSPDSLAVSLGERATINCRSSQTIILSNGNTYLEWYQQKPGQPPKLLIYKVSNRFSGVPDRFSGSGSGTDFTLTISSLQAEDVAVYYCFQGSHVPFTFGSGTKLEIKR
